Results on nine molecules are retold here after patent publication US20150203577A1 (Chugai, published 2015).

B1: MB848 (antibody, mouse IgG1, kappa)
heavy: QVQLQESGPGLVKPSETLSLTCAVSGHSISHDHAWSWVRQPPGEGLEWIGFISYSGITNYNPSLQGRVTISRDNSKNTLYLQMNSLRAEDTAVYYCARSLARTTAMDYWGEGTLVTVSSAKTTPPSVYPLAPGSAAQTNSMVTLGCLVKGYFPEPVTVTWNSGSLSSGVHTFPAVLQSDLYTLSSSVTVPSSTWPSETVTCNVAHPASSTKVDKKIVPRDCGCKPCICEPNEVELVFIFPPKPKDVLTITLTPKVTCVVVDISKDDPEVQFSWFVDDVEVHTAQTQPREEQFNSTFRSVSELPIMHQDWLNGKEFKCRVDSDGFPAPIEKTISKTKGRPKAPQVYTIPPPKEQMAKDKVSLTCMITDFFPEDITVEWQWNGQPAENYKNTQPIMDTDGSYFVYSKLNVQKSNWEAGNTFTCSVLHEGLHNHHTEKSLSHSPGK
light: not shown
notes: CH name; VH H237 + CH, L chain MRAL-k0; copies: 2 + 2
B2: MB855 (antibody, mouse IgG1, kappa)
heavy: B1 heavy with Q291L, D320N, K330R
light: not shown
notes: as for B1
B3: MB854 (antibody, mouse IgG1, kappa)
heavy: B1 heavy with Q291L, D320N, E329Y
light: not shown
notes: as for B1
B4: MB850 (antibody, mouse IgG1, kappa)
heavy: B1 heavy with D320N, E329Y
light: not shown
notes: as for B1
B5: MB856 (antibody, mouse IgG1, kappa)
heavy: B1 heavy with P327Y
light: not shown
notes: as for B1
B6: MB851 (antibody, mouse IgG1, kappa)
heavy: B1 heavy with D320N, K330R
light: not shown
notes: as for B1
B7: MB849 (antibody, mouse IgG1, kappa)
heavy: B1 heavy with D320N, P327Y
light: not shown
notes: as for B1
B8: MB852 (antibody, mouse IgG1, kappa)
heavy: B1 heavy with Q291L
light: not shown
notes: as for B1
B9: MB853 (antibody, mouse IgG1, kappa)
heavy: B1 heavy with Q291L, D320N, P327Y
light: not shown
notes: as for B1

Substitutions are numbered along the chain they refer to.

One test deals with T1, mouse FcγRII (mouse, UniProt P08101 30-210).
T1 construct: Extracellular domain with C-terminal His tag; also called mFcγRII; mFcgRII
T1 sequence: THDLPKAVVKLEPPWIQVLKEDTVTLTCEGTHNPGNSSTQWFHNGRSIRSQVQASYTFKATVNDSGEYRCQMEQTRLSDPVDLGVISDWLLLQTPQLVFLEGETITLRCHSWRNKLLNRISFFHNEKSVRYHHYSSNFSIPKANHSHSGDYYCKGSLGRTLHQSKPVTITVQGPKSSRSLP
As to the kind of experiment: SPR (Biacore T200); KD of H237-MB630/MRAL-k0 / KD of variant.
Consider B1, for which the “Relative mFcγRII-binding activity (MB630 = 1)” value was found to be 4.33 fold.
Regarding B2, the “Relative mFcγRII-binding activity (MB630 = 1)” value is 3.41 fold.
Still for that read-out and setting: then B3, with 4.77 fold; and B4, with 4.12 fold.
Same read-out and setting: then B5, with 4.23 fold; and B6, with 4.13 fold; and B7, with 2.97 fold.
The same measure, in the same setting: then B8, with 5.76 fold; and B9, with 3.31 fold.

A further test has as its target T2, mouse FcγRIII (mouse, UniProt P08508 31-215).
T2 construct: Extracellular domain with C-terminal His tag; also called mFcγRIII; mFcgRIII
T2 chain: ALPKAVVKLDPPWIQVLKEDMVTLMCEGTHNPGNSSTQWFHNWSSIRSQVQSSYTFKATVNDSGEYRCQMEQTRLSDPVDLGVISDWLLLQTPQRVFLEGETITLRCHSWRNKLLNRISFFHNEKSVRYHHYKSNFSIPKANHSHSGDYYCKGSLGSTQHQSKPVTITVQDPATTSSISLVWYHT
Described as above.
In the case of B1, the “Relative mFcγRIII-binding activity (MB630 = 1)” value was 5 fold.
For B2, the “Relative mFcγRIII-binding activity (MB630 = 1)” value came to 6.21 fold.
For B3, the “Relative mFcγRIII-binding activity (MB630 = 1)” value was 6.84 fold.
For B4, the “Relative mFcγRIII-binding activity (MB630 = 1)” value is 4.3 fold.
The same measure, in the same setting: then B5, with 4.95 fold; and B6, with 5.23 fold.
Same read-out and setting: then B7, with 3.54 fold; and B8, with 10 fold; and B9, with 6.2 fold.

A further test concerns the target T1, mouse FcγRII. The test can be described thus: SPR (Biacore T200); KD of H237-mIgG1/MRAL-k0 / KD of variant.
Regarding B1, the “relative mFcγRII-binding activity (mIgG1 = 1)” value stood at 45.8 fold.
The same measure, in the same setting: then B2, with 36.2 fold; and B3, with 50.6 fold; and B4, with 43.7 fold.
For the molecule B5, the “relative mFcγRII-binding activity (mIgG1 = 1)” value was found to be 44.8 fold.
On the same count and under the same terms, then B6, with 43.8 fold.
As for B7, the “relative mFcγRII-binding activity (mIgG1 = 1)” value turned out to be 31.4 fold.
Turning to B8, the “relative mFcγRII-binding activity (mIgG1 = 1)” value was 61 fold.
Still for that read-out and setting: then B9, with 35 fold.

In a further test the target is T2, mouse FcγRIII. Described as above.
Regarding B1, the “relative mFcγRIII-binding activity (mIgG1 = 1)” value was found to be 0.92 fold.
Still for that read-out and setting: then B2, with 1.14 fold; and B3, with 1.25 fold; and B4, with 0.79 fold.
Still for that read-out and setting: then B5, with 0.91 fold; and B6, with 0.96 fold; and B7, with 0.65 fold.
The same measure, in the same setting: then B8, with 1.83 fold; and B9, with 1.13 fold.
